From the Human Domainome abundance scans (Beltran et al. 2025)

B1: Heterogeneous nuclear ribonucleoprotein U-like protein 2, residues 1 to 40; numbered along this chain, Q1KMD3 (parent)
chain: MEVKRLKVTELRSELQRRGLDSRGLKVDLAQRLQEALDAE
B2: Tripartite motif-containing protein 6, residues 93 to 134; numbered along this chain, Q9C030 (parent)
chain: KAVLCADHGEKLQLFCQEDGKVICWLCERSQEHRGHHTFLVE

Variants of: B1
Experiment: abundance fitness (aPCA) (normalised: wild type 0, dead -1); higher = more abundant; growth selection in yeast, the domain comes from the species named
Conditions: Homo sapiens

Abundance fitness of substitutions, site by site:
K4: T 0.019 | H 0.335 | F -0.182 | Y -0.112 | M 0.091 | W -0.097 | P -0.37 | I -0.317 | D -0.082 | Q -0.028 | L -0.123 | G -0.126 | E 0.09 | A -0.06 | R -0.152 | C -0.181
V3: W -0.432 | K -0.501 | S -0.245 | T -0.114 | E -0.279 | G -0.325 | H -0.603 | I 0.048 | A -0.107 | P -0.077 | L -0.122 | Y -0.226 | D -0.202 | Q -0.328 | R -0.567 | F -0.374 | C -0.357
K7: S 0.141 | Q 0.067 | P -0.065 | L -0.143 | N 0.305 | A -0.069 | F -0.484 | G 0.015 | I -0.388 | D 0.135 | R -0.153 | V -0.274 | C -0.158
V8: D 0.024 | M -0.04 | F -0.289 | I -0.265 | K -0.163 | G -0.354 | N -0.27 | C -0.146 | A -0.077 | L -0.025
R5: D 0.181 | N -0.03 | I -0.237 | M -0.038 | W -0.256 | Q 0.006 | G -0.021 | F -0.302 | C -0.129 | L -0.031 | P -0.435 | V -0.35 | Y -0.247 | S 0.046 | K 0.194 | A 0.005 | E 0.077
M1: S -0.589 | K -0.136 | G -0.383 | L -0.339 | Y -0.749 | V -0.277 | H -1.03 | R -0.236 | Q -0.514 | T -0.564 | A -0.461 | E -0.08 | D -1.65 | W -0.354 | F -0.179 | C -0.414
L6: S -0.476 | R -0.572 | F -0.063 | C -1.02 | N -0.236 | G -0.485 | W -0.281 | P -0.48 | M 0.348 | K -0.144 | T 0.024 | Q -0.198 | E -0.26 | I -0.7 | D -0.845 | V -0.425 | H -0.496 | Y -0.46
E2: H -0.201 | L -0.294 | Y -0.161 | C -0.388 | P -0.844 | S -0.243 | R -0.365 | K -0.432 | W -0.263 | A -0.33 | I -0.271 | G -0.371 | Q -0.193 | T -0.243 | V -0.336

Variants of: B2
Experiment: as above
Conditions: Homo sapiens

Abundance fitness, by site and new letter:
Q31: M -0.057 | L -0.343 | W -0.593 | P -0.167 | K -0.103 | G -0.083 | Y -0.371 | T -0.045 | V 0.004 | E -0.159 | D -0.228 | H -0.125 | A -0.121 | S -0.031 | C -0.095
F39: G 0.093 | V 0.117 | W -0.149 | M 0.01 | Y 0.161 | T 0.111 | K 0.435 | Q 0.139 | R 0.19 | P -0.487 | N 0.041 | A 0.165
E42: T 0.216 | D 0.094 | A -0.852 | Y -0.421 | C -0.426
W25: M 0.135 | F 0.023 | S 0.068 | P -0.008 | R 0.173 | E 0.047 | T 0.094 | K 0.211 | I -0.024 | Q 0.12 | H 0.12 | G -0.01 | L -0.025 | V -0.033 | N 0.11
H33: S -0.28 | C -0.246 | M -0.549 | G -0.643 | T -0.685 | W -0.804 | R -0.364 | A -0.392 | P -0.771
E28: V -0.19 | L -0.272 | T 0.059 | H -0.481 | S -0.116 | D -0.101 | A -0.218 | M -0.326 | I -0.414 | P -0.376 | W -0.319 | C -0.494 | Y -0.362 | G -0.197 | Q -0.124 | K -0.062
C27: K -1.14 | V -1.32 | R -0.603 | S -1.1 | G -0.66 | Q -0.969 | P -0.536 | E -0.863 | A -0.755 | L -0.8 | T -0.882
L40: E 0.009 | K -0.154 | H -0.062 | M 0.207 | D 0.091 | W -0.112 | P 0.11 | A 0.169 | T 0.041 | N 0.115 | Q 0.224 | V -0.072 | G 0.052 | C -0.188
R34: F 0.058 | T 0.071 | G -0.161 | M -0.052 | V 0.035 | S -0.035 | K -0.111 | A -0.007 | L 0.092 | C -0.14 | H 0.102 | E -0.05 | N -0.058 | Q -0.041 | P -0.386 | Y 0.155
H37: W -0.503 | L -0.431 | S -0.123 | I -0.032 | C -0.17 | F 0.117 | R 0.002 | V -0.265
H36: A -0.472 | E -0.355 | D -0.399 | Q -0.303 | L -0.523 | Y -1.03 | G -0.442 | S -0.365 | K -0.558 | R -0.481 | M -0.606 | W -0.781
L26: K 0.104 | W -0.169 | G -0.042 | P -0.186 | V -0.05 | Y -0.015 | E 0.082 | A -0.029 | M 0.474 | N -0.057 | H -0.079 | Q 0.259 | T -0.011 | C -0.155 | I -0.172 | R 0.084 | F -0.517 | S -0.059 | D -0.05
G35: T -0.079 | K -0.244 | M -0.397 | R -0.195 | S -0.096 | Q -0.215 | P -0.366 | W -0.377 | L -0.202 | D 0.022 | A -0.116 | V -0.41 | I -0.377
R29: I -0.207 | E -0.094 | S -0.289 | A -0.331 | V -0.299 | H 0.051 | M -0.121 | L -0.175 | F -0.458 | Q -0.164 | K -0.05 | D -0.268 | G -0.189 | Y -0.24
S30: F -0.575 | G -0.135 | I 0.167 | A -0.016 | C -0.104 | H -0.209 | M 0.026 | P -0.7 | R -0.168 | Y -0.313 | T -0.15 | N -0.142 | W -0.686 | D 0.002 | Q 0.022 | K -0.307 | E -0.148
T38: G -0.177 | E -0.265
V41: M -0.143 | G -0.11 | S -0.051 | C -0.165 | R 0.149 | I -0.246 | Q 0.259 | P 0.036 | L -0.034 | E 0.029 | W -0.043 | A 0.16 | T 0.064 | N 0.041
